In IntAct's records for PubMed 19001025:

B1: Nucleolar protein 3 (Rattus norvegicus (Rat)), Q62881 (parent)
chain: MGNMQERPSETIDRERKRLVETLQADSGLLLDALVARGVLTGPEYEALDALPDAERRVRRLLLLVQSKGEAACQELLRCAQQTVSMPDPAWDWQHVGPGYRDRSYDPPCPGHWTPEAPSSGTTCPGLPRASEEEEIGGPEDSEAVQPRTPEEPELEAEATKGDEPDLEQEMEPEPEPEVEPEPEPEPEPEPEPEPEPEPEPEPEREPDFQEGDESEGCENT
partner: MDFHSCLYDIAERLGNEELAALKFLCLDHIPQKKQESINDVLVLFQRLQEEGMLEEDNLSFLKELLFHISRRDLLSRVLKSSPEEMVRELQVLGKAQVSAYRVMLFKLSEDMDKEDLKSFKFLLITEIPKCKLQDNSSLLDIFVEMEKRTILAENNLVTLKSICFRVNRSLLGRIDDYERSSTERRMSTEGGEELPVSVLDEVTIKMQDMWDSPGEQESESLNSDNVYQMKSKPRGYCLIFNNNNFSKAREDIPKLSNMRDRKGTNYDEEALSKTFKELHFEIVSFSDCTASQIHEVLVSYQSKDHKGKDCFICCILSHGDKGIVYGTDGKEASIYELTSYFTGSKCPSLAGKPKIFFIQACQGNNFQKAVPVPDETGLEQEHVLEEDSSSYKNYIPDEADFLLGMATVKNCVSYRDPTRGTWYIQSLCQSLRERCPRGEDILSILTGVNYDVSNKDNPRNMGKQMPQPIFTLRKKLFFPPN

Variants of: B1
Details: with casp8_rat Casp8, Q9JHX4

Variant | effect of a mutation on the interaction
T149D | disrupting interaction
